Results from IntAct's records for PubMed 11779178.

B1: Merlin (Homo sapiens), P35240-3 (parent)
chain: MAGAIASRMSFSSLKRKQPKTFTVRIVTMDAEMEFNCEMKWKGKDLFDLVCRTLGLRETWFFGLQYTIKDTVAWLKMDKKVLDHDVSKEEPVTFHFLAKFYPENAEEELVQEITQHLFFLQVKKQILDEKIYCPPEASVLLASYAVQAKYGDYDPSVHKRGFLAQEELLPKRVINLYQMTPEMWEERITAWYAEHRGRARDEAEMEYLKIAQDLEMYGVNYFAIRNKKGTELLLGVDALGLHIYDPENRLTPKISFPWNEIRNISYSDKEFTIKPLDKKIDVFKFNSSKLRVNKLILQLCIGNHDLFMRRRKADSLEVQQMKAQAREEKARKQMERQRLAREKQMREEAERTRDELERRLLQMKEEATMANEALMRSEETADLLAEKAQITEEEAKLLAQKAAEAEQEMQRIKATAIRTEEEKRLMEQKVLEAEVLALKMAEESERRAKEADQLKQDLQEAREAERRAKQKLLEIATKPTYPPMNPIPAPLPPDIPSFNLIGDSLSFDFKDTDMKRLSMEIEKEKVEYMEKSKHLQEQLNELKTEIEALKLKERETALDILHNENSDRGGSSKHNTIKKPQAQGRRPICI

Tests used:
[1] = variants of: B1; conditions: with eif3c_human EIF3C
HGS, O14964-2 = variants of: B1; conditions: with HGS
Chain of HGS, O14964-2 (O14964 other isoform, or with tags, fused parts or gaps): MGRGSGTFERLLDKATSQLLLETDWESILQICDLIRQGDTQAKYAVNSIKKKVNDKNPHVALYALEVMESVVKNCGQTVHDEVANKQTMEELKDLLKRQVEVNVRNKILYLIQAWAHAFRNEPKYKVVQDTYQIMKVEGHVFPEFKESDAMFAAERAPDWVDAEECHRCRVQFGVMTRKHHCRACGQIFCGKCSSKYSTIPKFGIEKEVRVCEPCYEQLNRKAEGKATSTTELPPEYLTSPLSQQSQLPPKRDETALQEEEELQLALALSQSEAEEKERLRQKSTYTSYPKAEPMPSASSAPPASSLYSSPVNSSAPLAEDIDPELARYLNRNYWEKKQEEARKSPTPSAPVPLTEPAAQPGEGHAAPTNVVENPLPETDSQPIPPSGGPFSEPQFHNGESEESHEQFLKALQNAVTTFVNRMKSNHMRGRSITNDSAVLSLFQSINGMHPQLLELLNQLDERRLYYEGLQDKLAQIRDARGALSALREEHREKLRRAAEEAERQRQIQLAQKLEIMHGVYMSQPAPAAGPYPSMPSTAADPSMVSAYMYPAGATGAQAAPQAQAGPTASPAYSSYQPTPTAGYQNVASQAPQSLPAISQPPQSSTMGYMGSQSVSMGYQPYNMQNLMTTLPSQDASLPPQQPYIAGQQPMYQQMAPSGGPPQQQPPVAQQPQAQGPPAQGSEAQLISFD

HGS, O14964-1 = variants of: B1; conditions: with HGS
Chain of HGS, O14964-1 (O14964 whole entry): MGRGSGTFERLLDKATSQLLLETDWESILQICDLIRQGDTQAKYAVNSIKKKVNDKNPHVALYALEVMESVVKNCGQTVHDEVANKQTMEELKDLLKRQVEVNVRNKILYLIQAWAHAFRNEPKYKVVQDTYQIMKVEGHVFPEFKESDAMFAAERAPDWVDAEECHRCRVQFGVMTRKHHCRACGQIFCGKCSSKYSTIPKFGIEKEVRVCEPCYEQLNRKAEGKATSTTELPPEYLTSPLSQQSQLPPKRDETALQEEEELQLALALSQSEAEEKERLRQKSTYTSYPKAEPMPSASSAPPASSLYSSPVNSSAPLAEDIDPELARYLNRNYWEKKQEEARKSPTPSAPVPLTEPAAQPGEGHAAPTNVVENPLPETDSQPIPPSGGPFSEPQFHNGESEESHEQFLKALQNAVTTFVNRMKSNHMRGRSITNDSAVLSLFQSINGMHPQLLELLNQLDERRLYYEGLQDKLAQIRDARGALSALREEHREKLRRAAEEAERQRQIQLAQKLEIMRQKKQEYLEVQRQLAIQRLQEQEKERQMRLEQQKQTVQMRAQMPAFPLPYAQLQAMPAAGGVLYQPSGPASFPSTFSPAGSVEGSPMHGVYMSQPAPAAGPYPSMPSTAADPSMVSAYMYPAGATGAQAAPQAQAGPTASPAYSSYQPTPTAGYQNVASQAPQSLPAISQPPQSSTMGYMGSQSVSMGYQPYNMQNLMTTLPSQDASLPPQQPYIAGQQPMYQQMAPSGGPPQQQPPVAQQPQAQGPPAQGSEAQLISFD

NF2, P35240-1 = variants of: B1; conditions: with NF2, P35240-1
[2] = variants of: B1; conditions: with sptb2_human SPTBN1, Q01082
Chain of sptb2_human SPTBN1, Q01082 (Q01082 whole entry): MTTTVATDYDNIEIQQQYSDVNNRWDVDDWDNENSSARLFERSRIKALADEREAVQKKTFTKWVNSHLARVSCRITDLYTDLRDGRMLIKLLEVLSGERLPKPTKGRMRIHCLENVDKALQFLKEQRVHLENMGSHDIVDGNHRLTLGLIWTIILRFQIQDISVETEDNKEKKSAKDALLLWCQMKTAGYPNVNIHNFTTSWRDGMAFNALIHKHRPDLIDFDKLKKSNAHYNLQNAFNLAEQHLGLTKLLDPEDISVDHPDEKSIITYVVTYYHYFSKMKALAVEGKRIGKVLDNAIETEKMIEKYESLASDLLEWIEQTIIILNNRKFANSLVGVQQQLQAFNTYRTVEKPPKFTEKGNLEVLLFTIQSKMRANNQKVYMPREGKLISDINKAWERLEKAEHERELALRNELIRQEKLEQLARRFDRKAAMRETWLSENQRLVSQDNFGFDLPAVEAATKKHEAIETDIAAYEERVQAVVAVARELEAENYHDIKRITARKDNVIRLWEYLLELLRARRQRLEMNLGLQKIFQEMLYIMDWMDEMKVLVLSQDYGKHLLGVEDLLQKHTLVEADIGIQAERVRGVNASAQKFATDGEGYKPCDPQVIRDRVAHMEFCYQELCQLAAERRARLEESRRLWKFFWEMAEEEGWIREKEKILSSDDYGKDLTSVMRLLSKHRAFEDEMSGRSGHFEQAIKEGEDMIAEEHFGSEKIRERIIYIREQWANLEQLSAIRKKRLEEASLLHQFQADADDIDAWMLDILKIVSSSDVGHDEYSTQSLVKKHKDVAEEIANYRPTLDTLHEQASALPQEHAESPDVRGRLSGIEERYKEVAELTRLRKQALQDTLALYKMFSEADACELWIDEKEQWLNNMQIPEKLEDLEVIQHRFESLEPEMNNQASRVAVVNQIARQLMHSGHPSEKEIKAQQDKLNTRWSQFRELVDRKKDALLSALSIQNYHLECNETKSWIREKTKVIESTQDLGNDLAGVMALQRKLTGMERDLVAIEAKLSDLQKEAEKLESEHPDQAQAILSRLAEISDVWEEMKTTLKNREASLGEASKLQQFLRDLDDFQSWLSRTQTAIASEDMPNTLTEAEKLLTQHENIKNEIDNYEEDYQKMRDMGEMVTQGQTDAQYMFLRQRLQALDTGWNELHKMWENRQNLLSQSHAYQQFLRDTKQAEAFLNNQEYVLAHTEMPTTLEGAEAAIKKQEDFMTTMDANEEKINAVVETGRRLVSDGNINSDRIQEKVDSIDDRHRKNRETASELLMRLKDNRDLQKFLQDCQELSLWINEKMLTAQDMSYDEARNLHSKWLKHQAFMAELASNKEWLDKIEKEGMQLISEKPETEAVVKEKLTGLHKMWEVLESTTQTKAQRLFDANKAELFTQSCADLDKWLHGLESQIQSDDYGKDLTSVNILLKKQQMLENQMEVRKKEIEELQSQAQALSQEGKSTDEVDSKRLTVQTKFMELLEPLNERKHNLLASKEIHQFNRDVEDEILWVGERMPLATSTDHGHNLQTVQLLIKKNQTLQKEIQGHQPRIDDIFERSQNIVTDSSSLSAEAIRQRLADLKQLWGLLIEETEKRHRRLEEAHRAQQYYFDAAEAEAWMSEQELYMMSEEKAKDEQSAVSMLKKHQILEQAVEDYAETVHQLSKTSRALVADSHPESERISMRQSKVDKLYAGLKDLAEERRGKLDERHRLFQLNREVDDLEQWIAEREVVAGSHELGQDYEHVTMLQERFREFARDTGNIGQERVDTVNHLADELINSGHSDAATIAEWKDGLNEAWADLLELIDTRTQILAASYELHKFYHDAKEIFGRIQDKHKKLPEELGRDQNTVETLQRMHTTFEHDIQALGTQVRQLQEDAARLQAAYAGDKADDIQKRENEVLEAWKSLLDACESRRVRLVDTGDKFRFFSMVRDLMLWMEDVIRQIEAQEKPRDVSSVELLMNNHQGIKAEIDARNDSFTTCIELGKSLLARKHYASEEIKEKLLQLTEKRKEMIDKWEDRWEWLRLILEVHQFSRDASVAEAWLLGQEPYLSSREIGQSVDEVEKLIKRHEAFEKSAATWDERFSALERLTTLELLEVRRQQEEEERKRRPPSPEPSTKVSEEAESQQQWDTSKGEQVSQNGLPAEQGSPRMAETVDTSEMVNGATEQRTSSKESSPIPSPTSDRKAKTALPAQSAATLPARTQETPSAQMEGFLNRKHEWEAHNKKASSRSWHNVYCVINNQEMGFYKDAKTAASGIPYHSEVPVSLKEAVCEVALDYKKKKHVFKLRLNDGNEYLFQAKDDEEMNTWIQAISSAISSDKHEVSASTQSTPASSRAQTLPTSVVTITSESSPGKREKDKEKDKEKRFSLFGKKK

| Variant | effect of a mutation on the interaction [1] | effect of a mutation on the interaction (HGS, O14964-2) | effect of a mutation on the interaction (HGS, O14964-1) | effect of a mutation on the interaction (NF2, P35240-1) | effect of a mutation on the interaction [2] |
| --- | --- | --- | --- | --- | --- |
| MAGAIASRMSFSSLKRKQPKTFTVRIVTMDAEMEFNCEMKWKGKDLFDLVCRTLGLRETWFFGLQYTIKDTVAWLKMDKKVLDHDVSKEEPVTFHFLAKFYPENAEEELVQEITQHLFFLQVKKQILDEKIYCPPEASVLLASYAVQAKYGDYDPSVHKRGFLAQEELLPKRVINLYQMTPEMWEERITAWYAEHRGRARDEAEMEYLKIAQDLEMYGVNYFAIRNKKGTELLLGVDALGLHIYDPENRLTPKISFPWNEIRNISYSDKEFTIKPLDKKIDVFKFNSSKLRVNKLILQLCIGNHDLFMRRRKADSLEVQQMKAQAREEKARKQMERQRLAREKQMREEAERMRDELERRLLQMKEEATMANEALMRSEETADLLAEKAQITEEEAKLLAQKAAEAEQEMQRIKATAIRTEEEKRLMEQKVLEAEVLALKMAEESERRAKEADQLKQDLQEAREAERRAKQKLLEIATKPTYPPMNPIPAPLPPDIPSFNLIGDSLSFDFKDTDMKRLSMEIEKEKVEYMEKSKHLQEQLNELKTEIEALKLKERETALDILHNENSDRGGSSKHNTIKKPQAQGRRPICI [T352M] | increasing interaction strength | with no effect | increasing interaction strength | decreasing interaction strength | decreasing interaction strength |
| MAGAIASRMSFSSLKRKQPKTFTVRIVTMDAEMEFNCEMKWKGKDLFDLVCRTLGLRETWFFGLQYTIKDTVAWLKMDKKVLDHDVSKEEPVTFHFLAKFYPENAEEELVQEITQHLFFLQVKKQILDEKIYCPPEASVLLASYAVQAKYGDYDPSVHKRGFLAQEELLPKRVINLYQMTPEMWEERITAWYAEHRGRARDEAEMEYLKIAQDLEMYGVNYFAIRNKKGTELLLGVDALGLHIYDPENRLTPKISFPWNEIRNISYSDKEFTIKPLDKKIDVFKFNSSKLRVNKLILQLCIGNHDLFMRRRKADSLEVQQMKAQAREEKARKQMERQRLAREKQMREEAERTRDELERRPLQMKEEATMANEALMRSEETADLLAEKAQITEEEAKLLAQKAAEAEQEMQRIKATAIRTEEEKRLMEQKVLEAEVLALKMAEESERRAKEADQLKQDLQEAREAERRAKQKLLEIATKPTYPPMNPIPAPLPPDIPSFNLIGDSLSFDFKDTDMKRLSMEIEKEKVEYMEKSKHLQEQLNELKTEIEALKLKERETALDILHNENSDRGGSSKHNTIKKPQAQGRRPICI [L360P] | increasing interaction strength | disrupting interaction strength | disrupting interaction strength | decreasing interaction strength | decreasing interaction strength |
